US20150353950A1, “TRANSGENIC PLANTS” (Durham University, priority 2012, published 2015)

T1: SUMOylated GFP:RGA (plant-derived)
T1 chain 1: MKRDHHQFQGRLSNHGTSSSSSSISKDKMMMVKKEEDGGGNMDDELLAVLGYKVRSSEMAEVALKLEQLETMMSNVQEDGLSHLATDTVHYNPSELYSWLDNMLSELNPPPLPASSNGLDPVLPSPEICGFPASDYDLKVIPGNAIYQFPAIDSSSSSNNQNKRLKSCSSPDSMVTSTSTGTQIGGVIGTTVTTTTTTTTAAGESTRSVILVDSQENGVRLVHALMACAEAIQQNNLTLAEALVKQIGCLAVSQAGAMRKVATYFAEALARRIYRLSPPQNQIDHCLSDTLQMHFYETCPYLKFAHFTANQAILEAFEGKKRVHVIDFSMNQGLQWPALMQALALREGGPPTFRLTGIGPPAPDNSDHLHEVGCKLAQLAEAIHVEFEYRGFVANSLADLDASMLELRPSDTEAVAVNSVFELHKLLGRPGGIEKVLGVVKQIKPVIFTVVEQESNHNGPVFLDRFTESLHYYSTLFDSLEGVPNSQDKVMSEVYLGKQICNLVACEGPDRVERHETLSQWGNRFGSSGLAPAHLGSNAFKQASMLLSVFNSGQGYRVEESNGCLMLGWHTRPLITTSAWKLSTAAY
T1 chain 2: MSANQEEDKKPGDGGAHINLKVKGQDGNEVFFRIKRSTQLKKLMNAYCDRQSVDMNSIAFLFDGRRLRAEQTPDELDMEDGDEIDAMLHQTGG

T2: GID1a (Arabidopsis thaliana, UniProt Q9MAA7)
T2 construct: The GID1a ORF was amplified by PCR from whole cDNAs from seedlings with oligos LC73 and LC74; made in house; host or cells: E. coli
T2 sequence (Q9MAA7 1-345): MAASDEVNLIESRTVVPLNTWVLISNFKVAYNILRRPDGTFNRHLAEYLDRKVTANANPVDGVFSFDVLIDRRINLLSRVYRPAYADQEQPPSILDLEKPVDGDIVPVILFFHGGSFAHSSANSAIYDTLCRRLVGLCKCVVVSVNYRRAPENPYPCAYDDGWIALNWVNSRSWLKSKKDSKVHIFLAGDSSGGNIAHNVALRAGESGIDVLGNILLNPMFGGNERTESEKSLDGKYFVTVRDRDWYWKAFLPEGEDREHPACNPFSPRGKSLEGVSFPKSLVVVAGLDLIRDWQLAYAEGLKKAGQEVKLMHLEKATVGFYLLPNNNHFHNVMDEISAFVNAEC

B1: His:OTS1 (protein)
chain: MTKRKKEVIDVDCSEKKDFVIDWSSAMDKEDEVPELEIVNTTKPTPPPPPTFFSDDQTDSPKLLTDRDLDEQLERKKAILTLGPGLPDKGEKIRLKIADLEEEKQRRVLEGSKMEVDRSSKVVSSTSSGSDVLPQGNAVSKDTSRGNADSKDTSRQGNADSKEVSRSTFSAVFSKPKTDSQSKKAFGKELEDLGCERRKHKAGRKPVTRLSNGWRLLPDVGKAEHSAKQFDSGLKESKGNKKSKEPYGKKRPMESSTYSLIDDDDDDDDDDDNDTSGHETPREWSWEKSPSQSSRRRKKSEDTVINVDEEEAQPSTVAEQAAELPEGLQEDICYPTRDDPHFVQVCLKDLECLAPREYLTSPVMNFYMRFLQQQISSSNQISADCHFFNTYFYKKLSDAVTYKGNDKDAFFVRFRRWWKGIDLFRKAYIFIPIHEDLHWSLVIVCIPDKKDESGLTILHLDSLGLHSRKSIVENVKRFLKDEWNYLNQDDYSLDLPISEKVWKNLPRRISEAVVQVPQQKNDFDCGPFVLFFIKRFIEEAPQRLKRKDLGMFDKKWFRPDEASALRIKIRNTLIELFRVSDQTE
B2: AtS1: Arabidopsis small ubiquitin-like modifier SUMO1, recombinant (protein)
chain: T1 chain 2
B3: SUMOylated RGA: plant-derived SUMOylated form of GFP:RGA DELLA protein (protein)
chain 1: T1 chain 1
chain 2: T1 chain 2
modifications: left off: large carriers
notes: plant-derived SUMOylated form of GFP:RGA DELLA protein

Legend:
SUMO1 = target: T3, SUMO1 (Arabidopsis thaliana, UniProt P55852); experiment: Far-western / peptide array of GID1 SIM peptides probed with SUMO1; format: binding; details: for SIM-SUMO1 interaction (far-western): 1 μg peptide spotted on PVDF, probed with His:proAtSUMO1 (10 μg/ml); for interaction with SUMO1 (peptide array): peptide arrays of GID1 SIMs
T3 construct: His (N); made in house; host or cells: E. coli
Protocol: FIGS. 9A-C. GID1a contains a functional SIM motif in the N-terminal region. a, amino acid positions of two putative SIMs (SUMO interacting motifs) in the GID1a N-terminal domain (SEQ ID NO: 59). Lower panel, far-western assays of two peptides corresponding to SIM A (SEQ ID NO: 60) and SIM B (SEQ ID NO: 58). […] Number indicates molecular mass (kDa). Non-transgenic, wild-type extracts (wt) were used as a negative control. c, mean root growth of 10 days old seedlings in the presence of 100 mM NaCl expressed as a inhibition (%) relatively to the untreated controls. Error bar=s.e.m. n=16.
Peptides corresponding to the putative SIMs in GID1 were purchased from Cambridge Research Biochemicals. 1 μg of each peptide was spotted on a PVDF membrane. Membranes were washed in 100% Ethanol, equilibrated in TBST (25 mM Tris HCl, pH 8.0, 150 mM NaCl, 0.05% Tween 20) and blocked in TBST-Milk 5%. Peptides were probed overnight at 4° C. with recombinant His:proAtSUMO1 (10 μg/ml), washed and subsequently probed with SUMO1 antibodies for standard chemoluminescence-based detection.

[1] = target: T1, SUMOylated GFP:RGA (plant-derived)
GID1a [2] = target: T2, GID1a; experiment: GST pull down assay with GST:GID1a; format: binding; details: presence or absence of GA3 (10 μM)
Protocol: FIGS. 4A-F. SUMOylated DELLA binds GID1 independently from GA. a, crossspecies alignment of SIM B in the GID1 protein amino terminal extension (grey). Alignment discloses SEQ ID NOS 50-55, respectively, in order of appearance. b, GST pull down assay between His:AtSUMO1 and GST:GID1a or GST in the presence (+) or absence (−) of GA3 (10 μM). Asterisk indicates a cross-reacting band. c, GST pull down assay between plant-derived GFP:RGA proteins with recombinant GST:GID1a or GST. d, mean germination rates (percentage of visible green cotyledons) of wild type (wt), ots1 ots2 double mutants and transgenic lines (T4). n=40-80 for each treatment/genotype combination. Error bar=s.d. of three biological replicates. e, images of NaCl-grown seedlings. Bar=1 cm f, model for the SUMOylation-dependent DELLA accumulation. For recombinant proteins, affinity purified GST:GID1a (0.1 μg) or GST were mixed with His:AtSUMO1 (0.1 μg) and incubated in 1× reaction buffer (Gamborg's B5—minimal organics, 50 mM NaCl, 0.05% Igepal CA-630, 1 mM DTT, 50 mM Tris HCl, pH 7.5). GA3 was added at a final concentration of 10 μM. Proteins were pulled-down using the μMACS GST Isolation Kit, according to the manufacturers' instruction (Miltenyi biotech). […]

GID1a [3] = target: T2, GID1a; experiment: SPR (Biacore 2000) on immobilised GID1a; format: binding
Protocol: FIG. 17. SUMO inhibits GID1a binding to RGA-DELLA protein Interaction between RGA alone with GID1a (red) and, RGA and SUMO1 (AtS1, blue) with GID1a both in the presence of GA3. […] Method: SPR was carried out on a Biacore 2000 instrument at 25° C. Purified GID1a was amine-coupled to a CM5 sensor chip (GE Healthcare). Flow cell 1 was blocked using ethanolamine and used as reference. Approx 500 RU of GID1a was bound to flow cells 2 and 3. All binding assays were carried out in HBS-EP buffer (10 mM HEPES pH 7.5, 150 mM NaCl, 1 mM EDTA, 1 mM DTT, 0.005% P20) at a flow rate of 20 μl/min using 180 second injections followed by 180 s of dissociation in HBS-EP. Each condition was run in duplicate using proteins at 100 μg/ml in HBS-EP (containing 100 μM GA3 as appropriate). Regeneration used 10 mM glycine pH 1.5 at 30 μl/min for 30 s.
FIGS. 18A and B. GID1a—SUMO Interaction Data Sensorgram of interaction between SUMO1 (AtS1) with GID1a.

T3 sequence (P55852 whole entry): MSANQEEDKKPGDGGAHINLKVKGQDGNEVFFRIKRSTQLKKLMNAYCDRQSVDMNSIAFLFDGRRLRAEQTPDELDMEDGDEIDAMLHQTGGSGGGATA

Molecule | SIM-SUMO1 interaction (far-western) (SUMO1) | interaction with SUMO1 (peptide array) (SUMO1) | binding to GST:GID1a (GST pull down) (GID1a [2]) | further results
SIM B V22A: SIM B peptide with substitution of a hydrophobic amino acid for an alanine residue (VVPLNTWALISN) | strongly reduced SIM-SUMO1 interaction | reduction in interaction |  | 
SIM B: peptide corresponding to putative SUMO interacting motif B in the GID1a N-terminal domain (SEQ ID NO: 58) (VVPLNTWVLISN; listed as Arabidopsis thaliana) | Binding between the SIM and SUMO1 occurs | shown to be a genuine SIM |  | 
B1 |  |  |  | in vitro deSUMOylation of immunoprecipitated GFP:RGA (anti-SUMO1 immunoblot) [1]: dramatic reduction of the higher molecular weight, anti-SUMO1 cross-reacting bands only in the tubes containing wild-type OTS1
B2 |  |  | can bind to SUMO1 from Arabidopsis in a GA-independent manner | binding of AtS1 to GID1a (SPR sensorgram) (GID1a [3]; 25° C., HBS-EP buffer, proteins at 100 μg/ml): binding and saturation of AtS1 to GID1a followed by disassociation; effect on RGA binding to GID1a (SPR combined response) (GID1a [3]; RGA and AtS1 together, in the presence of GA3 (100 μM)): combined response (blue) is reduced in the presence of AtS1
B3 |  |  | could bind to GST:GID1a even in the absence of GA | 
